{"source": "paper PMC6472337", "about": "“L amino acid transporter structure and molecular bases for the asymmetry of substrate interaction” (Nature Communications, 2019)", "key": {"[1]": {"system": "BasC wild-type", "assay": "[3H]L-alanine transport (influx, efflux, exchange) in BasC proteoliposomes", "assay_type": "biochemical, Carnobacterium sp AT7", "conditions": "for 10 μM [3H]L-alanine exchange into BasC PLs containing 4 mM of the indicated compound: 4 mM compound inside PLs, n=1-3 and mean", "method": "BasC-GFP protein was reconstituted in E. coli polar lipids (Sigma-Aldrich, Madrid, Spain), as previously described. Lipids were dried under N2 and suspended in reconstitution buffer (20 mM Tris-Base, 150 mM NaCl, pH 7.4). The suspension was sonicated to clarity and purified BasC protein was added to reach the desired protein to lipid ratio of 1:100 (w:w). To destabilize the liposomes, 1.25% ß-D-octylglucoside was added and the mixture was incubated on ice with occasional agitation for 5 min. DDM and ß-D-octylglucoside were removed by dialysis for 40 h at 4 °C against 100 volumes of dialysis buffer. Proteoliposome (PL) suspensions were frozen in liquid N2 and stored at −80 °C until use.\nFor uptake experiments, the desired intraliposomal amino acid concentration was added to the PL suspension, which was then subjected to three freeze/thaw cycles. The extraliposomal amino acid content was then removed by ultracentrifugation (100,000 × g for 1 h at 4 °C) and PLs were resuspended to one-third of the initial volume with reconstitution buffer. Amino acid uptake assays were initiated after mixing 10 μl of cold PLs with 180 μl of transport buffer (20 mM Tris-Base, 150 mM NaCl, pH 7.4 plus 0.5–1 µCi/180 µl of radiolabeled L-amino acid (Perkin Elmer, Waltham, MA)) supplemented with the unlabeled amino acid to the desired concentration. This mixture was then incubated at room temperature for the indicated periods. […] Filters were then washed twice with 2 ml of stop buffer and dried, and the trapped radioactivity was counted. Transport measured in PLs containing no amino acid was subtracted from each data point to calculate the net exchange. […] BasC protein in PLs was determined by Coomassie blue staining in SDS-PAGE gels compared with known amounts of BasC in DDM micelles, determined by BCA assay (Pierce, Rockford, IL) and loaded in the same gel."}, "[2]": {"system": "AdiC", "set-up": "method as in PMID 22304019", "conditions": "cited from earlier work"}, "[3]": {"substrate": "C[C@H](N)C(=O)O", "assay": "cells, lysate or membranes", "conditions": "other: L-alanine uptake, pH 7.4, 37.0 °C"}, "[4]": {"biological_target": "T1, bacterial alanine-serine-cysteine exchanger (BasC), wild-type, purified for crystallography (Carnobacterium sp. AT7)", "T1 construct": "BasC, bacterial alanine-serine-cysteine exchanger, a prokaryotic L-type amino acid transporter (LAT); In the transport assays (functional rows) BasC stood as uncleaved BasC-GFP reconstituted in E. coli polar lipid proteoliposomes; also called WT; source: E. coli BL21 Star (DE3), purified in DM (Ni2+-NTA, on-column HRV-3C cleavage); not shown: GFP, C-terminal, cleaved", "T1 chain": "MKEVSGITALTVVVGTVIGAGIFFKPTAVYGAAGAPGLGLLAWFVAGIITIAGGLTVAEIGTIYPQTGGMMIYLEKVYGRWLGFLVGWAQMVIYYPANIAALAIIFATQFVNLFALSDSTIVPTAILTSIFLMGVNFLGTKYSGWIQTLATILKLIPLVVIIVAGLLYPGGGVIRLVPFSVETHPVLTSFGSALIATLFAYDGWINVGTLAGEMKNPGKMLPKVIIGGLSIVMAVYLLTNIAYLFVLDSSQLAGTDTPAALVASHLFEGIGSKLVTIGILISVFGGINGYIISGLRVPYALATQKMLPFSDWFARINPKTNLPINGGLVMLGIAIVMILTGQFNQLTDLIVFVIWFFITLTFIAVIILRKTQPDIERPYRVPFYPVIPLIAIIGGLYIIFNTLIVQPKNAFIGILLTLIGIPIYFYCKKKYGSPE", "assay": "crystal structure; BasC incubated with Nb74 at 1:1.2, complex purified by SEC in 0.17% DM; sitting-drop vapor diffusion at 4 °C, 27–29% PEG 400, 0.1 M ammonium acetate pH 8; apo (2.9 Å) and with 100 mM 2-AIB (3.4 Å)", "conditions": "both partners purified"}, "[5]": {"biological_target": "T1, bacterial alanine-serine-cysteine …", "assay": "SPR; Biacore T-100; nanobody captured (around 200 RU) on a CM5 chip coated with anti-His antibody; BasC flowed at 500–2.5 nM; running buffer phosphate buffered saline, 0.17% DM", "conditions": "both partners purified"}, "[6]": {"biological_target": "BasC", "assay": "Surface plasmon resonance of Nb74-BasC interaction", "assay_type": "binding, Carnobacterium sp AT7", "conditions": "read-out: KD (affinity of Nb74 for BasC)", "method": "Surface plasmon resonance (Biacore T-100, GE Healthcare, Chicago, IL) was used to screen 29 Nbs (one from each family) for binding with BasC, purified as for crystallography. […] BasC was assayed at 500–2.5 nM in running buffer. […] The BasC-Nb74 complex rendered the best results initially and consequently crystals were optimized."}, "[7]": {"conditions": "5 µM Nb74 in medium, exchange with 4 mM L-alanine, NT = 100, n=1-6 and mean"}}, "data": [{"molecule": "CC(C)(N)C(=O)O", "note": "[2-AIB, 2-aminoisobutyric acid]", "values": [{"measurement": "Km", "setting": "[1]; 2-AIB as intraliposomal substrate, read-out: intracellular Km", "value": "34.5 ± 10", "unit": "mM"}, {"measurement": "intracellular Km relative to L-alanine Km", "setting": "[1]; higher than L-alanine Km", "value": "~ 10 fold"}]}, {"molecule": "CC(=O)O", "note": "[Acetate]", "values": [{"measurement": "10 μM [3H]L-alanine exchange into BasC PLs containing 4 mM of the indicated compound", "setting": "[1]", "value": "not significant"}]}, {"molecule": "CCN", "note": "[Ethylamine, ethylamine]", "values": [{"measurement": "10 μM [3H]L-alanine exchange into BasC PLs containing 4 mM of the indicated compound", "setting": "[1]; listed as ethylamine", "value": "not significant"}]}, {"molecule": "NCCCC(=O)O", "note": "[GABA, γ-aminobutyrate]", "values": [{"measurement": "10 μM [3H]L-alanine exchange into BasC PLs containing 4 mM of the indicated compound", "setting": "[1]", "value": "not a substrate"}]}, {"molecule": "NCCCCN=C(N)N", "note": "[agmatine]", "values": [{"measurement": "intracellular apparent Km value compared to the extracellular one", "setting": "[2]", "value": "two-fold higher"}]}, {"molecule": "N=C(N)NCCC[C@H](N)C(=O)O", "note": "[arginine]", "values": [{"measurement": "intracellular apparent Km value compared to the extracellular one", "setting": "[2]", "value": "two-fold higher"}]}, {"molecule": "human Asc-1 (hAsc-1) wild-type (Homo sapiens) (protein) MAGHTQQPSGRGNPRPAPSPSPVPGTVPGASERVALKKEIGLLSACTIIIGNIIGSGIFISPKGVLEHSGSVGLALFVWVLGGGVTALGSLCYAELGVAIPKSGGDYAYVTEIFGGLAGFLLLWSAVLIMYPTSLAVISMTFSNYVLQPVFPNCIPPTTASRVLSMACLMLLTWVNSSSVRWATRIQDMFTGGKLLALSLIIGVGLLQIFQGHFEELRPSNAFAFWMTPSVGHLALAFLQGSFAFSGWNFLNYVTEEMVDARKNLPRAIFISIPLVTFVYTFTNIAYFTAMSPQELLSSNAVAVTFGEKLLGYFSWVMPVSVALSTFGGINGYLFTYSRLCFSGAREGHLPSLLAMIHVRHCTPIPALLVCCGATAVIMLVGDTYTLINYVSFINYLCYGVTILGLLLLRWRRPALHRPIKVNLLIPVAYLVFWAFLLVFSFISEPMVCGVGVIIILTGVPIFFLGVFWRSKPKCVHRLTESMTHWGQELCFVVYPQDAPEEEENGPCPPSLLPATDKPSKPQ", "values": [{"measurement": "Km", "setting": "[3]; wild-type hAsc-1, HeLa cells", "value": "0.0675 ± 0.0042", "unit": "mM"}, {"measurement": "Vmax", "setting": "[3]; wild-type hAsc-1, HeLa cells", "value": "1703 ± 425 pmols µg protein^−1 min^−1"}]}, {"molecule": "hAsc-1 K194A mutant (Homo sapiens; K194A) (protein) MAGHTQQPSGRGNPRPAPSPSPVPGTVPGASERVALKKEIGLLSACTIIIGNIIGSGIFISPKGVLEHSGSVGLALFVWVLGGGVTALGSLCYAELGVAIPKSGGDYAYVTEIFGGLAGFLLLWSAVLIMYPTSLAVISMTFSNYVLQPVFPNCIPPTTASRVLSMACLMLLTWVNSSSVRWATRIQDMFTGGALLALSLIIGVGLLQIFQGHFEELRPSNAFAFWMTPSVGHLALAFLQGSFAFSGWNFLNYVTEEMVDARKNLPRAIFISIPLVTFVYTFTNIAYFTAMSPQELLSSNAVAVTFGEKLLGYFSWVMPVSVALSTFGGINGYLFTYSRLCFSGAREGHLPSLLAMIHVRHCTPIPALLVCCGATAVIMLVGDTYTLINYVSFINYLCYGVTILGLLLLRWRRPALHRPIKVNLLIPVAYLVFWAFLLVFSFISEPMVCGVGVIIILTGVPIFFLGVFWRSKPKCVHRLTESMTHWGQELCFVVYPQDAPEEEENGPCPPSLLPATDKPSKPQ", "values": [{"measurement": "Km", "setting": "[3]; K194A hAsc-1, HeLa cells", "value": "0.825 ± 0.053", "unit": "mM"}, {"measurement": "Vmax", "setting": "[3]; K194A hAsc-1, HeLa cells", "value": "152 ± 16 pmols µg protein^−1 min^−1"}]}, {"molecule": "anti-BasC nanobody 74 (Nb74) (VHH, nanobody from a llama immunised with BasC proteoliposomes, selected by phage display (vector pMESy4); Captured by its His tag on an anti-His antibody in the SPR experiment) VHH: QVQLVESGGGVVQAGGSLRLSCAASGRTFSSRAMGWFRQAPGEGREFVATISWSGSYTEYADSVKGRVTISRDNAKNTVYLQMNSLKPGDTAVYHCAAKNGGAASNYPNDYVYWGQGTQVTVSS", "values": [{"measurement": "stoichiometry N", "setting": "[4]", "value": 1}, {"measurement": "Kd", "setting": "[5]", "value": "3.9 ± 1.4", "unit": "nM"}, {"measurement": "Kd", "setting": "[6]", "value": 3.87, "unit": "nM"}, {"measurement": "Efflux of 10 µM [3H]L-alanine, normalized to non-treated PLs", "setting": "[1]; [7]", "value": 9.14}, {"measurement": "Influx of 10 µM [3H]L-alanine, normalized to non-treated PLs", "setting": "[1]; [7]", "value": 105.77}, {"measurement": "IC50", "setting": "[1]; read-out: IC50 of 10 µM [3H]L-alanine efflux, efflux in exchange with 4 mM L-alanine, Nb74 in PL medium", "value": "~300", "unit": "nM"}]}]}
